The results in this text go back to the supplement of paper PMC7877785.

The nature of the data set: self-splicing fitness, log relative to wild type (ln ratio); higher = more splicing; Tetrahymena group I intron in knt gene, E. coli kanamycin selection, DiMSum; sequences stand for … in CUCUCU…GGAGGGAAAAGUUAUCAGGCAUGCACCUGGUAGCUAGUCUUUAAACCAAUAGAUUGCAUCGGUUUAAAAGGCAAGACCGUCAAAUUGCGGGAAAGGGGUCAACAGCCGUUCAGUACCAAGUCUCAGGGGAAACUUUGAGAUGGCCUUGCAAAGGGUAUGGUAAUAAGCUGACGGACAUGGUCCUAACCACGCAGCCAAGUCCUAAGUCAACAGAUCUUCUGUUGAUAUGGAUGCAGUUCACAGACUAAAUGUCGGUCGGGGAAGAUGUAUUCUUCUCAUAAGAUAUAGUCGGACCUCUCCUUAAUGGGAGCUAGCGGAUGAAGUGAUGCAACACUGGAGCCGCUGGGAACUAAUUUGUAUGCGAAAGUAUAUUGAUUAGUUUUGGAGUACUCGUGGUCG
In outline: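 A randomised library covering all eight P1ex-region intron nucleotides was built with the intron in the knt kanamycin-resistance gene on pET-22b(+) and held in E. coli BL21(DE3). Cells were grown overnight at 37°C or 30°C on LB agar, with or without 25 μg/mL kanamycin, plus 100 μg/mL carbenicillin, 50 μM IPTG and 0.2% rhamnose, and pooled colonies were amplicon-sequenced on an Illumina HiSeq 2500. DiMSum fitness is the error-weighted combination of wild-type-normalised replicate fold changes, kanamycin versus none.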

± gives the uncertainty stated by the source.

For the sequence UAAAAGCAAUAUUACGCCGC, the “self-splicing fitness (ln)” value (37 °C) was -1.17 ± 0.23.

UAAAAGCAAUAUUACGCCUU: the “self-splicing fitness (ln)” value is -1.53 ± 0.12 (30 °C) and -0.42 ± 0.12 (37 °C). The like results for UAAAAGCAAUAUUACGCGUA were, in that order, -1.12 ± 0.11 and -0.0821 ± 0.096. The like results for UAAAAGCAAUAUUACGCGUC were, in that order, -3.53 ± 0.24 and -2.7 ± 0.21. The like results for UAAAAGCAAUAUUACGGAUA were, in that order, -1.35 ± 0.12 and 0.0185 ± 0.12. On to UAAAAGCAAUAUUACGGCUC, for which the “self-splicing fitness (ln)” value is -1.05 ± 0.12 (30 °C) and 0.168 ± 0.17 (37 °C). As for UAAAAGCAAUAUUACGGGCA, the “self-splicing fitness (ln)” value is, setting by setting: (30 °C) -0.521 ± 0.094; (37 °C) 0.0848 ± 0.1. For the sequence UAAAAGCAAUAUUACGGGCC, the “self-splicing fitness (ln)” value by setting is: (30 °C) -1.68 ± 0.2; (37 °C) -2.04 ± 0.38. The like results for UAAAAGCAAUAUUACGGGGC were, in that order, -3.59 ± 0.23 and -2.33 ± 0.25. The matching figures for UAAAAGCAAUAUUACGGGGU: -3.96 ± 0.17 and -3.21 ± 0.2. For UAAAAGCAAUAUUACGGUCC, the “self-splicing fitness (ln)” value is, setting by setting: (30 °C) -2.84 ± 0.17; (37 °C) -2.03 ± 0.21. The like results for UAAAAGCAAUAUUACGUAAC were, in that order, -3.84 ± 0.33 and -2.02 ± 0.3.

UAAAAGCAAUAUUACGUAGU: the “self-splicing fitness (ln)” value runs as follows: (30 °C) -3.36 ± 0.12; (37 °C) -2.83 ± 0.14.

Take UAAAAGCAAUAUUACGUAUA: the “self-splicing fitness (ln)” value was -1.82 ± 0.12 (30 °C) and -0.643 ± 0.12 (37 °C). The matching figures for UAAAAGCAAUAUUACGUGUC: -3.12 ± 0.25 and -2.5 ± 0.2.

For UAAAAGCAAUAUUACGUUAU, the “self-splicing fitness (ln)” value was -3.59 ± 0.16 (30 °C) and -2.41 ± 0.13 (37 °C). The like results for UAACAGCAAUAUUACGAACA were, in that order, -0.546 ± 0.072 and 0.297 ± 0.087.

As for UAACAGCAAUAUUACGAAGG, the “self-splicing fitness (ln)” value was -1.76 ± 0.083 (30 °C) and -1.78 ± 0.12 (37 °C). The like results for UAACAGCAAUAUUACGACAA were, in that order, -0.503 ± 0.094 and 0.136 ± 0.096. The like results for UAACAGCAAUAUUACGACCG were, in that order, -0.596 ± 0.09 and -0.323 ± 0.11. The like results for UAACAGCAAUAUUACGAGCG were, in that order, -0.617 ± 0.055 and 0.286 ± 0.069. On to UAACAGCAAUAUUACGAUUA, for which the “self-splicing fitness (ln)” value was -0.131 ± 0.047 (30 °C) and -0.103 ± 0.058 (37 °C). The like results for UAACAGCAAUAUUACGCAAG were, in that order, -2.08 ± 0.078 and -2.23 ± 0.074. The matching figures for UAACAGCAAUAUUACGCAGC: -4.12 ± 0.37 and -3.15 ± 0.4. For the sequence UAACAGCAAUAUUACGCCUC, the “self-splicing fitness (ln)” value is -2.18 ± 0.35 (30 °C) and -2.06 ± 0.33 (37 °C).

In the case of UAACAGCAAUAUUACGCGUU, the “self-splicing fitness (ln)” value (30 °C) was -3.66 ± 0.1 and the “self-splicing fitness (ln)” value (37 °C) is -3.01 ± 0.13.

On to UAACAGCAAUAUUACGGACA, for which the “self-splicing fitness (ln)” value is, setting by setting: (30 °C) -0.353 ± 0.085; (37 °C) -0.527 ± 0.1. The matching figures for UAACAGCAAUAUUACGGACG: -0.143 ± 0.055 and 0.21 ± 0.079. The matching figures for UAACAGCAAUAUUACGGCAA: -0.777 ± 0.089 and 0.203 ± 0.096. The matching figures for UAACAGCAAUAUUACGGCUG: -2.55 ± 0.095 and -0.978 ± 0.12. In the case of UAACAGCAAUAUUACGGUAG, the “self-splicing fitness (ln)” value reads like this: (30 °C) -1.7 ± 0.07; (37 °C) -0.0293 ± 0.076. The like results for UAACAGCAAUAUUACGUACU were, in that order, -1.07 ± 0.063 and -0.454 ± 0.068. As for UAACAGCAAUAUUACGUCAA, the “self-splicing fitness (ln)” value by setting is: (30 °C) -2.17 ± 0.15; (37 °C) -0.769 ± 0.1. The matching figures for UAACAGCAAUAUUACGUCUG: -0.467 ± 0.059 and 0.248 ± 0.077.

UAACAGCAAUAUUACGUUAG: the “self-splicing fitness (ln)” value (30 °C) is -2.24 ± 0.087 and the “self-splicing fitness (ln)” value (37 °C) was -0.961 ± 0.086.

On to UAACAGCAAUAUUACGUUUU, for which the “self-splicing fitness (ln)” value was -3.39 ± 0.12 (30 °C) and -1.7 ± 0.099 (37 °C). Turning to UAAGAGCAAUAUUACGAACU, the “self-splicing fitness (ln)” value (30 °C) is -2.49 ± 0.47. For the sequence UAAGAGCAAUAUUACGACAA, the “self-splicing fitness (ln)” value was -3.57 ± 0.43 (30 °C) and -1.79 ± 0.29 (37 °C). Regarding UAAGAGCAAUAUUACGAGCG, the “self-splicing fitness (ln)” value (30 °C) was -3.12 ± 0.35 and the “self-splicing fitness (ln)” value (37 °C) was -1.54 ± 0.26.

As for UAAGAGCAAUAUUACGCAAU, the “self-splicing fitness (ln)” value is, setting by setting: (30 °C) -3.35 ± 0.31; (37 °C) -2.32 ± 0.27. In the case of UAAGAGCAAUAUUACGCACC, for the setting “37 °C”, the “self-splicing fitness (ln)” value is -1.93 ± 0.41.

Regarding UAAGAGCAAUAUUACGCAGC, the “self-splicing fitness (ln)” value is, setting by setting: (30 °C) -3.16 ± 0.22; (37 °C) -3.49 ± 0.33. The matching figures for UAAGAGCAAUAUUACGCAGG: -4.39 ± 0.36 and -2.2 ± 0.2.

With UAAGAGCAAUAUUACGCAUA, the “self-splicing fitness (ln)” value by setting is: (30 °C) -1.8 ± 0.39; (37 °C) -1.59 ± 0.3. The matching figures for UAAGAGCAAUAUUACGCCUG: -2.17 ± 0.15 and -0.85 ± 0.2. The matching figures for UAAGAGCAAUAUUACGCGAG: -3.96 ± 0.21 and -1.85 ± 0.17. As for UAAGAGCAAUAUUACGCGGA, the “self-splicing fitness (ln)” value runs as follows: (30 °C) -2.95 ± 0.28; (37 °C) -2.35 ± 0.33. The like results for UAAGAGCAAUAUUACGGCAG were, in that order, -3.03 ± 0.18 and -1.38 ± 0.17. As to UAAGAGCAAUAUUACGGCCG, the “self-splicing fitness (ln)” value was -1.79 ± 0.14 (30 °C) and -0.743 ± 0.2 (37 °C).

For UAAGAGCAAUAUUACGGCGU, the “self-splicing fitness (ln)” value (30 °C) was -1.79 ± 0.13 and the “self-splicing fitness (ln)” value (37 °C) was -2.39 ± 0.31. The like results for UAAGAGCAAUAUUACGGGAC were, in that order, -2.98 ± 0.38 and -1.86 ± 0.33. As for UAAGAGCAAUAUUACGGUAG, the “self-splicing fitness (ln)” value (37 °C) was -2.57 ± 0.35. On to UAAGAGCAAUAUUACGGUCU, for which the “self-splicing fitness (ln)” value is -3.26 ± 0.4 (30 °C) and -2.04 ± 0.24 (37 °C). The matching figures for UAAGAGCAAUAUUACGUAGG: -3.24 ± 0.33 and -2.56 ± 0.3.

Take UAAGAGCAAUAUUACGUCCU: the “self-splicing fitness (ln)” value (37 °C) is -2.49 ± 0.45. For the sequence UAAGAGCAAUAUUACGUCGG, the “self-splicing fitness (ln)” value runs as follows: (30 °C) -3.8 ± 0.29; (37 °C) -2.25 ± 0.27.

On to UAAGAGCAAUAUUACGUGAU, for which the “self-splicing fitness (ln)” value is, setting by setting: (30 °C) -4.21 ± 0.34; (37 °C) -2.43 ± 0.35. The matching figures for UAAGAGCAAUAUUACGUGCG: -3.85 ± 0.42 and -0.711 ± 0.27. The matching figures for UAAUAGCAAUAUUACGACAA: -2.23 ± 0.16 and -1.01 ± 0.14. The matching figures for UAAUAGCAAUAUUACGACAU: -3.378 ± 0.025 and -1.95 ± 0.036. Turning to UAAUAGCAAUAUUACGAGCA, the “self-splicing fitness (ln)” value (30 °C) is -1.64 ± 0.16 and the “self-splicing fitness (ln)” value (37 °C) is -1.21 ± 0.16. Turning to UAAUAGCAAUAUUACGCAUC, the “self-splicing fitness (ln)” value (30 °C) was -2.08 ± 0.49. For the sequence UAAUAGCAAUAUUACGCAUG, the “self-splicing fitness (ln)” value is -1.4 ± 0.085 (30 °C) and 0.553 ± 0.13 (37 °C).

UAAUAGCAAUAUUACGCCCA: the “self-splicing fitness (ln)” value (30 °C) was -1.36 ± 0.19 and the “self-splicing fitness (ln)” value (37 °C) stood at 0.129 ± 0.26. The matching figures for UAAUAGCAAUAUUACGCCGG: -1.23 ± 0.17 and -1.05 ± 0.33. The matching figures for UAAUAGCAAUAUUACGCCGU: -2.83 ± 0.38 and -1.97 ± 0.43. The matching figures for UAAUAGCAAUAUUACGCUUA: -1.32 ± 0.25 and -0.932 ± 0.15. As for UAAUAGCAAUAUUACGGCGC, the “self-splicing fitness (ln)” value is -3.51 ± 0.35 (30 °C) and -2.42 ± 0.38 (37 °C). The matching figures for UAAUAGCAAUAUUACGGCUC: -2.37 ± 0.23 and -0.201 ± 0.23. The like results for UAAUAGCAAUAUUACGGGCC were, in that order, -3.78 ± 0.44 and -2.52 ± 0.48. With UAAUAGCAAUAUUACGGUGU, the “self-splicing fitness (ln)” value was -2.98 ± 0.21 (30 °C) and -2.93 ± 0.3 (37 °C). The matching figures for UAAUAGCAAUAUUACGUCAG: -2.58 ± 0.25 and -1.56 ± 0.2. The like results for UAAUAGCAAUAUUACGUGCA were, in that order, -1.36 ± 0.11 and -1.34 ± 0.099. For the sequence UAAUAGCAAUAUUACGUGGU, the “self-splicing fitness (ln)” value is -4.96 ± 0.28 (30 °C) and -2.75 ± 0.15 (37 °C). The matching figures for UAAUAGCAAUAUUACGUGUG: -1.6 ± 0.073 and -0.917 ± 0.074. Take UACAAGCAAUAUUACGAACC: the “self-splicing fitness (ln)” value (37 °C) was -0.357 ± 0.23.

For UACAAGCAAUAUUACGACAU, the “self-splicing fitness (ln)” value is -1.474 ± 0.012 (30 °C) and -0.59 ± 0.032 (37 °C).
